In US20170189529A1 (CONTRAFECT, published 2017):
Like-named read-outs stand apart in the source and are kept apart here.

B1: TRL579 (antibody, V domains shown)
VH: QVQLVQSGAEVKKPGASVKVSCKTSGYTFTAYTIHWVRQAPGQRLEWMGWINAGNGHTKYSQRFKGRVTITRDTSARTTYMELRSLTSEDTALYFCARGPETYYYDKTNWLNSHPDEYFQHWGHGTQVTVSS
VL: DIQMTQSPSTLSASVGDRVTITCRASQTINNYLAWYQQKPGKAPKLLIYKASSLESGVPSRFSGSGSGTEFTLTISSLQPDDFATYYCQEYNNDSPLTFGGGTKVEIKR
B2: TRL846 (antibody, V domains shown)
VH: QVQLVESGGGLVQPGGSLRLSCTVSGFTFNSYAMNWVRQAPGKGLEWVSGIRGSGENTYYAETVKGRFTISRDNSKNTLYLEMNSLRAEDTAVYYCARKWGRMTVFGVATDQLYYFDYWGQGTLVTVSS
VL: DITLTQSPATLSVSPGERATLSCRASQSVSSNLAWYQQKPGQAPRLLIYGASNRATDIPARFSGSGSGTEFTLTISSLQSEDFAVYYCQQFNDWPFLTFGGGTKVEIKR
B3: TRL854 (antibody, V domains shown)
VH: QVQLVESGAEVKKPGASVRVSCKGSGYTFTAYHMHWVRQAPGQGFEWVGWINPNSGATYYTSTFEGRVTMTRDTSITTAYMELSSLRSDDTAVYYCATDIVVERDASLGGFNSYGMDVWGQGTTVTVSS
VL: DIEMTQSPLSLPVTPGEPASISCRSSQSLLHSNGYNHLAWYLQKPGRSPHLLIYLASTRASGVPDRFSGSGSGTDFTLKISRVEAEDVGIYYCMQSLQTSITFGQGTRLEIKR

Legend:
[1] = molecular target: T1, H3 Hong Kong/8/68 HA trimer (influenza A virus H3 Hong Kong/8/68); assay: kinetic binding to HA trimer (instrument not stated)
T1 construct: Trimeric HA

[2] = molecular target: hemagglutinin of influenza A virus A/New York/55/2004, on virus (influenza A virus A/New York/55/2004); assay: cell-based or functional assay
[3] = molecular target: hemagglutinin of influenza A virus A/Udorn/307/1976, on virus (influenza A virus A/Udorn/307/1976); assay: cell-based or functional assay
[4] = molecular target: hemagglutinin of influenza A virus A/Northern Shoveler (H10), on virus (influenza A virus H10 A/Northern …); assay: cell-based or functional assay
[5] = molecular target: hemagglutinin of influenza A virus A/Perth/16/2009 (H3), on virus (influenza A virus H3 A/Perth/16/2009); assay: cell-based or functional assay
[6] = molecular target: hemagglutinin of influenza A virus A/HongKong/68, on virus (influenza A virus A/HongKong/68); assay: cell-based or functional assay
[7] = molecular target: hemagglutinin of influenza A virus A/SW/MN/02719, on virus (influenza A virus A/SW/MN/02719); assay: cell-based or functional assay
[8] = molecular target: hemagglutinin of influenza A virus A/Canada/rv444/04 (H7), on virus (influenza A virus H7 A/Canada/rv444/04); assay: cell-based or functional assay
[9] = molecular target: hemagglutinin of influenza A virus A/Wisconsin/67/2005, on virus (influenza A virus A/Wisconsin/67/2005); assay: cell-based or functional assay
[10] = molecular target: hemagglutinin of influenza A virus A/Philippines/2/82 x-79, on virus (influenza A virus A/Philippines/2/82 …); assay: cell-based or functional assay
[11] = molecular target: hemagglutinin of influenza A virus A/Netherlands/219/03, on virus (influenza A virus A/Netherlands/219/03); assay: cell-based or functional assay
[12] = molecular target: hemagglutinin of influenza A virus A/Bufflehead (H4), on virus (influenza A virus H4 A/Bufflehead); assay: cell-based or functional assay
[13] = molecular target: recombinant HA of influenza B virus B/Brisbane/08 (Victoria clade) (influenza B virus B/Brisbane/08 …); assay: recombinant HA ELISA (AttoPhos fluorescence, mean of triplicates)
[14] = molecular target: T2, hemagglutinin (HA) of influenza B virus B/Florida (Yamagata lineage) (influenza B virus B/Florida/06 …); assay: as above
[15] = molecular target: T3, hemagglutinin (HA) of influenza B virus B/Malaysia (Victoria lineage) (influenza B virus B/Malaysia/04 …); assay: as above
[16] = molecular target: recombinant HA of influenza B virus B/Wisconsin/10 (Yamagata clade) (influenza B virus B/Wisconsin/10 …); assay: as above
[17] = molecular target: recombinant HA of influenza B virus B/Mass/12 (Yamagata clade) (influenza B virus B/Mass/12 (Yamagata …)); assay: as above
[18] = molecular target: T2, hemagglutinin (HA) of influenza B virus …
[19] = molecular target: T3, hemagglutinin (HA) of influenza B virus …
[20] = molecular target: T3, hemagglutinin (HA) of influenza B virus …; assay: affinity determination (method not stated there; data not shown)

Binder | fold reactivity over background [13] | fold reactivity over background [14] | fold reactivity over background [15] | fold reactivity over background [16] | fold reactivity over background [17] | Kd [18] | other results
B1 | 1 fold over background | 1 fold over background | 1.1 fold over background | 1 fold over background | 3.2 fold over background |  | Kd [1]: 200 pM; koff [1]: 5.8e-05 s⁻¹; kon [1]: 250000 M⁻¹ s⁻¹; IC50 (ug/ml), MDCK monolayer microneutralization assay [2]: 1.1 µg/mL; IC50 (ug/ml), MDCK monolayer microneutralization assay [3]: 1.9 µg/mL; IC50 (ug/ml), MDCK monolayer microneutralization assay [4]: 0.8 µg/mL; IC50 (ug/ml), MDCK monolayer microneutralization assay [5]: 0.2 µg/mL; IC50 (ug/ml), MDCK monolayer microneutralization assay [6]: 2.8 µg/mL; IC50 (ug/ml), MDCK monolayer microneutralization assay [7]: 3.9 µg/mL; IC50 (ug/ml), MDCK monolayer microneutralization assay [8]: 1.6 µg/mL; IC50 (ug/ml), MDCK monolayer microneutralization assay [9]: 1 µg/mL; IC50 (ug/ml), MDCK monolayer microneutralization assay [10]: 0.9 µg/mL; IC50 (ug/ml), MDCK monolayer microneutralization assay [11]: 0.6 µg/mL; IC50 (ug/ml), MDCK monolayer microneutralization assay [12]: 15.5 µg/mL
B2 | 25.6 fold over background | 25.6 fold over background | 25.6 fold over background | 25.6 fold over background | 25.6 fold over background | 850 pM | Kd [19]: < 1000 pM
B3 | 25.6 fold over background | 25.6 fold over background | 25.6 fold over background | 25.6 fold over background | 25.6 fold over background | 8800 pM | Kd [20]: < 1000 pM
